Publication PMC11724882, “Molecular basis for the enzymatic inactivity of class III glutaredoxin ROXY9 on standard glutathionylated substrates” (Nature Communications, 2025)
Values joined by “and” are separate entries in the source; they are usually repeats but may differ in a detail not shown here. Identical values can stand only once.

How the values were obtained:
Cys23 [1] = biological target: Cys23 (UniProt position 23, FSKTYCPYCVR); test: chemical modification; settings: buffers at a normality of 0.1; no added salt stated; citrate pH 2.0-6.0; KH2PO4/Na2HPO4 pH 6.5-8.0; Na2B4O7 pH 8.5-10.0. Protein was desalted into 5 mM HEPES pH 7.0. 10 µl protein was mixed with 40 µl pH buffer and 5 µl 100 mM IAM.; Pre-reduced with 10 mM DTT and desalted; no glutathione or other ligand; native protein during the IAM step.
Cys23 [2] = biological target: Cys23 (UniProt position 23, FSKTYCPYSVR); test: chemical modification; settings: buffers at a normality of 0.1; no added salt stated; citrate pH 2.0-6.0; KH2PO4/Na2HPO4 pH 6.5-8.0; Na2B4O7 pH 8.5-10.0. Protein was desalted into 5 mM HEPES pH 7.0. 10 µl protein was mixed with 40 µl pH buffer and 5 µl 100 mM IAM.; Pre-reduced with 10 mM DTT and desalted; no glutathione or other ligand; native protein during the IAM step.
Cys21 [3] = biological target: Cys21 (UniProt position 21, FTKSSCCLCYA); test: chemical modification; settings: buffers at a normality of 0.1; no added salt stated; citrate pH 2.0-6.0; KH2PO4/Na2HPO4 pH 6.5-8.0; Na2B4O7 pH 8.5-10.0. Protein was desalted into 5 mM HEPES pH 7.0. 10 µl protein was mixed with 40 µl pH buffer and 5 µl 100 mM IAM.; Pre-reduced with 10 mM DTT and desalted; no glutathione or other ligand; native protein during the IAM step.
Cys21 [4] = biological target: Cys21 (UniProt position 21, FTKSSCSLSYA); test: chemical modification; settings: buffers at a normality of 0.1; no added salt stated; citrate pH 2.0-6.0; KH2PO4/Na2HPO4 pH 6.5-8.0; Na2B4O7 pH 8.5-10.0. Protein was desalted into 5 mM HEPES pH 7.0. 10 µl protein was mixed with 40 µl pH buffer and 5 µl 100 mM IAM.; Pre-reduced with 10 mM DTT and desalted; no glutathione or other ligand; native protein during the IAM step.
Cys22 [5] = biological target: Cys22 (UniProt position 23, FIKPTCPFARK); settings: cited from earlier work
Cys22 [6] = biological target: Cys22 (UniProt position 23, FIKPTCPFSRK); settings: cited from earlier work
Cys22 [7] = biological target: Cys22 (UniProt position 23, FIKPTCPFCRK); settings: cited from earlier work
[8] = biological target: the molecule itself; test: SEC; analytical gel filtration of the affinity-purified strep-MBP fusion proteins (purified in the presence of 5 mM GSH); strep-MBP-ROXY9 also after DTT treatment

Molecule: Glutaredoxin GRXC2 (class I GRX), strep-MBP fusion, wild type (Arabidopsis thaliana)
- pKa (Cys23 [1]): between 3.0 and 3.5

Molecule: Glutaredoxin GRXC2-CSS variant (only CysA retained), strep-MBP fusion (Arabidopsis thaliana; C26S;C80S)
- pKa (Cys23 [2]): between 3.5 and 4.0

Molecule: Glutaredoxin ROXY9 (class III / CC-type GRX, CEPD2), strep-MBP fusion, wild type (Arabidopsis thaliana)
- pKa (Cys21 [3]): between pH 4 and 4.5

Molecule: Glutaredoxin ROXY9 single-cysteine variant (only Cys21 retained), strep-MBP fusion (Arabidopsis thaliana; C22S;C24S;C49S;C61S)
- pKa (Cys21 [4]): between 6 and 7

Molecule: Pig glutaredoxin (liver thioltransferase) C25A (Sus scrofa; C25A)
- pKa (Cys22 [5]): 5.9

Molecule: Pig glutaredoxin (liver thioltransferase) C25S (Sus scrofa; C25S)
- pKa (Cys22 [6]): 4.9

Molecule: Pig glutaredoxin (liver thioltransferase), wild type (Sus scrofa)
- pKa (Cys22 [7]): 3.8

B1: strep-MBP-ROXY9 (enzyme, Arabidopsis thaliana, UniProt O82255 1-102, looked up)
chain: MDKVMRMSSEKGVVIFTKSSCCLCYAVQILFRDLRVQPTIHEIDNDPDCREIEKALLRLGCSTAVPAVFVGGKLVGSTNEVMSLHLSGSLVPLIKPYQSILY
notes: class III glutaredoxin ROXY9, Arabidopsis thaliana, AT2G47880; ORF inserted into a variant of MacroLab vector 438-C (modified pFastBac, Addgene plasmid 48296) in which the His-tag was exchanged for Strep-tag II; a TEV site lies between the tag and ROXY9; also called class III GRX ROXY9; CEPD2; source: Hi5 insect cells (baculovirus), purified (MBPTrap, eluted with maltose, 5 mM GSH in buffer)
- stoichiometry N [8]: 2 and 3
